In patent publication US20160010082A1:

Target: Alexa labeled human IgG
Assay: flow cytometry of E. coli displaying the construct, 300 nM Alexa labeled human IgG; two hour induction; reference CPX display

fold higher display level than from CPX: 3 fold
Substance: eCPX displaying the mini-Z-domain at the N-terminus
